Reference: publication doi:10.1101/2025.06.05.658000
Like-named read-outs stand apart in the source and are kept apart here.

Assays:
Assay in all cases: ELISA
[1] = biological target: HLA-DR (DRA1*01:01 / DRB1*01:01), soluble knob-into-hole Fc heterodimer (human)
[2] = biological target: HLA-DR (DRA1*01:01 / DRB1*13:01), soluble knob-into-hole Fc heterodimer (human)
[3] = biological target: HLA-DR (DRA1*01:01 / DRB1*13:02), soluble knob-into-hole Fc heterodimer (human)
[4] = biological target: The majority of HLA-DR
[5] = biological target: HLA-DR (DRA1*01:01 / DRB1*13:01), soluble knob-into-hole Fc heterodimer (human); remark: listed apart in the source
[6] = biological target: HLA-DR (DRA1*01:01 / DRB1*13:02), soluble knob-into-hole Fc heterodimer (human); remark: listed apart in the source

affinity [2] | affinity [3] | affinity [4] | affinity [5] | affinity [6] | Substance | IC50 [1]
 |  |  |  |  | SARS-CoV-2 RBD peptide RBD487-501 (from UniProt P0DTC2 487-501) | 293 nM
 |  |  |  |  | SARS-CoV-2 RBD peptide RBD491-505 (from UniProt P0DTC2 491-505) | 152 nM
< 300 nM | < 300 nM | 0 to 25 nM | 300 nM | 4 µM | biotin-labeled human Class II-associated Invariant Chain Peptide (Bio-CLIP) | 
